# How the values were obtained:
# [1] = target: HLA-A*01:01; assay: IEDB peptide-MHC binding, purified MHC/direct/fluorescence; filed as Kd, often an IC50 or EC50 that approximates it; ≥ and ≤ were set here for values at or beyond the usual limits of such assays
# [2] = target: HLA-A*02:01; assay: as above
# [3] = target: HLA-A*03:01; assay: as above
# [4] = target: HLA-A*11:01; assay: as above
# [5] = target: HLA-A*26:01; assay: as above
# [6] = target: HLA-A*31:01; assay: as above
# [7] = target: HLA-A*69:01; assay: as above
# [8] = target: HLA-B*07:02; assay: as above; settings: source organism: Pseudomonas tolaasii
# [9] = target: HLA-B*08:01; assay: as above
# [10] = target: HLA-B*15:01; assay: as above; settings: source organism: Pseudomonas tolaasii
# [11] = target: HLA-B*27:05; assay: as above
# [12] = target: HLA-B*40:01; assay: as above; settings: source organism: Pseudomonas fluorescens
# [13] = target: HLA-B*58:01; assay: as above
# [14] = target: HLA-B*44:02; assay: IEDB peptide-MHC binding, purified MHC/competitive/radioactivity; filed as Kd, often an IC50 or EC50 that approximates it; ≥ and ≤ were set here for values at or beyond the usual limits of such assays
# [15] = target: HLA-A*02:03; assay: as above; settings: source organism: Dengue virus 4 Philippines/H241/1956
# [16] = target: HLA-A*32:01; assay: as above
# [17] = target: HLA-A*01:01; assay: as above
# [18] = target: HLA-A*26:01; assay: as above
# [19] = target: HLA-A*29:02; assay: as above
# [20] = target: HLA-A*30:01; assay: as above
# [21] = target: HLA-A*30:02; assay: as above
# [22] = target: HLA-A*02:01; assay: IEDB peptide-MHC binding, purified MHC/competitive/fluorescence; filed as Kd, often an IC50 or EC50 that approximates it; ≥ and ≤ were set here for values at or beyond the usual limits of such assays
# [23] = target: HLA-B*08:01; assay: IEDB peptide-MHC binding, purified MHC/competitive/radioactivity; filed as Kd, often an IC50 or EC50 that approximates it; ≥ and ≤ were set here for values at or beyond the usual limits of such assays
# [24] = source organism: Pseudomonas tolaasii
# [25] = source organism: Dengue virus 1 Brazil/97-11/1997
# [26] = source organism: Dengue virus 4 Philippines/H241/1956
# [27] = source organism: Vaccinia virus WR
# [28] = source organism: Entamoeba histolytica HM-1:IMSS
# [29] = source organism: Mammarenavirus machupoense
# [30] = source organism: Pseudomonas aeruginosa
# [31] = source organism: Mycobacterium tuberculosis
# [32] = source organism: Dengue virus 2 Jamaica/1409/1983
# [33] = source organism: Giardia lamblia ATCC 50803
# [34] = source organism: Mammarenavirus juninense
# [35] = source organism: Lymphocytic choriomeningitis virus (strain Armstrong)
sequence,measurement,setting,value
AEGTGITHL,Kd,[1]; [24],≥ 20000 nM
same,Kd,[2]; [24],≥ 20000 nM
same,Kd,[3]; [24],≥ 20000 nM
same,Kd,[4]; [24],≥ 20000 nM
same,Kd,[5]; [24],≥ 20000 nM
same,Kd,[6]; [24],≥ 20000 nM
same,Kd,[7]; [24],≥ 20000 nM
same,Kd,[8],≥ 20000 nM
same,Kd,[9]; [24],≥ 20000 nM
same,Kd,[10],≥ 20000 nM
same,Kd,[11]; [24],≥ 20000 nM
same,Kd,[12],54.3 nM
same,Kd,[13]; [24],≥ 20000 nM
AEHSGTSHNI,Kd,[14]; [25],48.2 nM
AICSAVPTEW,Kd,[14]; [26],743 nM
ALNELPESL,Kd,[15],94.1 nM
same,Kd,[16]; [26],1400 nM
ALNHLVLSL,Kd,[16]; [27],41.4 nM
ANKWYFAPR,Kd,[3]; [28],≥ 20000 nM
same,Kd,[6]; [28],1.4 nM
CMLNNSFYY,Kd,[17]; [29],1780 nM
same,Kd,[18]; [29],958 nM
same,Kd,[19]; [29],1.33 nM
same,Kd,[20]; [29],556 nM
same,Kd,[21]; [29],5.46 nM
same,Kd,[16]; [29],10500 nM
DFIGFGAAY,Kd,[5]; source organism: Mycobacterium tuberculosis variant bovis,3.2 nM
DMYDQQLSV,Kd,[2]; [30],262 nM
same,Kd,[7]; [30],32 nM
DTIYPTAIY,Kd,[5]; [31],3 nM
EDMLKVWNRV,Kd,[16]; [26],19600 nM
EIQLKIDKL,Kd,[22]; source organism: Variola virus,3590 nM
ELINKFVEL,Kd,[23]; [27],1040 nM
ELKEKSVKF,Kd,[23]; [27],3.19 nM
EQMQRKHGGM,Kd,[23]; [25],86 nM
ETNDLVTNV,Kd,[22]; source organism: Variola virus,3240 nM
FKGKTVWFVP,Kd,[16]; [32],≥ 69900 nM
FLIGVYQQY,Kd,[2]; [33],≥ 20000 nM
same,Kd,[7]; [33],≥ 20000 nM
FLMGFNRDV,Kd,[7]; [31],1760 nM
FTFKRTSGSSV,Kd,[22]; source organism: Influenza A virus H3N2,930 nM
GRIDKPILK,Kd,[1]; source organism: Homo sapiens,≥ 53500 nM
same,Kd,[3]; source organism: Homo sapiens,13500 nM
same,Kd,[4]; source organism: Homo sapiens,8150 nM
same,Kd,[11]; source organism: Homo sapiens,790 nM
GVLEEQGSFY,Kd,[17]; [34],1640 nM
same,Kd,[18]; [34],223 nM
same,Kd,[19]; [34],1020 nM
same,Kd,[20]; [34],≥ 39600 nM
same,Kd,[21]; [34],243 nM
same,Kd,[16]; [34],≥ 69900 nM
IDNVHTWTEQ,Kd,[16]; [26],9850 nM
IGMNSRSTSL,Kd,[23]; [32],107 nM
IIIPFIAYFV,Kd,[22]; source organism: Variola virus,50.5 nM
ILHLILWIL,Kd,[22]; source organism: Influenza A virus (A/Memphis/1/1978(H1N1)),6000 nM
ILRKATRRL,Kd,[9]; source organism: Influenza A virus (A/Ck/HK/CSW161/2003(H9N2)),369 nM
IMRRRQYVL,Kd,[9]; [33],4 nM
KLGNLLLLI,Kd,[16]; [27],0.716 nM
KLLRRPFSL,Kd,[23]; [27],0.362 nM
KTTFKPNTW,Kd,[4]; source organism: SARS-CoV1,≥ 32600 nM
same,Kd,[13]; source organism: SARS-CoV1,157 nM
LAGAGLAFSL,Kd,[23]; [25],2620 nM
LAIPPTAGVL,Kd,[23]; source organism: Dengue virus 3 Martinique/1243/1999,11900 nM
LLHEVGITV,Kd,[7]; [31],1920 nM
LMKERISSE,Kd,[23]; [27],81.9 nM
LQFGFGWFSY,Kd,[17]; [35],≥ 70400 nM
same,Kd,[18]; [35],473 nM
same,Kd,[19]; [35],19.6 nM
same,Kd,[20]; [35],5210 nM
same,Kd,[21]; [35],4.99 nM
same,Kd,[16]; [35],7.32 nM
